Results published in the DeepSol protein solubility set.

Assay: soluble on expression in E. coli; label from the status in PepcDB or PDB records

Row | Sequence | soluble on expression in E. coli
1 | MTLETAFMLPVQDAQHSFRRLLKAMSEPGVIVALHQLKRGWQPLNIATTSVLLTLADNDTPVWLSTPLNNDIVNQSLRFHTNAPLVSQPEQATFAVTDEAISSEQLNALSTGTAVAPEAGATLILQVASLSGGRMLRLTGAGIAEERMIAPQLPECILHELTERPHPFPLGIDLILTCGERLLAIPRTTHVEVC | soluble
2 | MGSDKIHHHHHHMSRISEEIENLTVELVKVPSVNGTEGEGNIGNKILSYLKEIDYFKEHEEYAFRIPLKNDKLGRGNVFALIRGEKGQSNRTIILHGHMDTVAVDDYGSLKDYAFDPDILQKKLKEIELPEEVREDLDSGDWMFGRGASDMKSGDAVHLVVLKELSKRVKDISGNILFMSNPVEENEHNGIREALDTLEKLKEKYSLEYTLAINNDYICPMYKGDNTRYLYTGTVGKLLPAFYFVGKETHVGQCFEGINADVIASEVINEIDLNVDLCDEYNGEYTLPPSVLKFKDLKESYNVQTPFSSFAYFNYTVHSESPKQASEKLKKAAKRAFERVIKRNDDRYKKYCEMTNQKYEPLNFQAKVITYTQLYTLAKARFSGDLDKEIKSYEQRLVDNYVDIREISLRVVDKVFNIWGEKKPCIVMFFAPPYCPHNTLNVKNEKEKEIINKIKECAQQLKEKEGINEEFKVMQFFPSLSDSSYLKIDDDSEGIESLTSNFPGWDRVYGVPVQKIKDLNIPAINYGCYGKDAHKWTERVYKPYSFEVLPKLIMLTIEKFL | not soluble
3 | MDLKFKSQETGRSIGFASHLRRHGATLANHLNYTRNEFISTLADCHQNLGIEGRASSPEKQFDEDGDEIEATATKIEWQPLKCPKCHRNSENTRKLLEHLVEDHGRPQDKAWFEQFDTIGTDLKKVFDKAIRIQAENSVVKKKFQNSNDLLVCPTDSPLAPFLLMRHLQVNFQEVSQTLTEGIVLKLQIASTSYTIIFSFHKVDKARRRIKREMARKSLERRLRVLELRCARTWVPDDDVVFKKKRTSEENKALIQALKLPATSSHDDIVLKINEMKTQHDEMVK | not soluble
4 | MTRPFNRVHLIVMDSVGIGEAPDAADFKDEGSHTLRHTLEGFDQTLPNLEKLGLGNIDKLPVVNAVEQPEAYYTKLSEASVGKDTMTGHWEIMGLNIMQPFKVYPNGFPEELIQQIEEMTGRKVVANKPASGTQIIDEWGEHQMKTGDLIVYTSADPVLQIAAHEDIIPLEELYDICEKVRELTKDPKYLIGRIIARPYVGEPGNFTRTSNRHDYALKPFGKTVLDHLKDGGYDVIAIGKINDIYDGEGVTEAVRTKSNMDGMDQLMKIVKKDFTGISFLNLVDFDALYGHRRDKPGYAQAIKDFDDRLPELFSNLKEDDLVIITADHGNDPTAPGTDHTREYIPVIMYSPKFKGGHALESDTTFSSIGATIADNFNVTLPEFGKSYLKELK | not soluble
5 | MSSNCTSTTAVAVAPLSASKTKTKKKHFVCQKVKLFRASEPILSVLMWGVNHTINELSNVPVPVMLMPDDFKAYSKIKVDNHLFNKENLPSRFKFKEYCPMVFRNLRERFGIDDQDYQNSVTRSAPINSDSQGRCGTRFLTTYDRRFVIKTVSSEDVAEMHNILKKYHQFIVECHGNTLLPQFLGMYRLTVDGVETYMVVTRNVFSHRLTVHRKYDLKGSTVAREASDKEKAKDLPTFKDNDFLNEGQKLHVGEESKKNFLEKLKRDVEFLAQLKIMDYSLLVGIHDVDRAEQEEMEVEERAEDEECENDGVGGNLLCSYGTPPDSPGNLLSFPRFFGPGEFDPSVDVYAMKSHESSPKKEVYFMAIIDILTPYDTKKKAAHAAKTVKHGAGAEISTVNPEQYSKRFNEFMSNILT | soluble
6 | MNSAGLEQCGMIMTRKNYYITTDGLLKRNENTLYFINKDLKRPIPINKIYSIYSYGALTISSQALNLLSKEGIPIHFFNRYGFYSGSFYPRETLLSGDVIIKQAEHVIDHDKRIELARSFVRGAALNMRRVLSYYGIENGISDTLMDLDSSNSVTDVMNVEGRIRSDYYNAIDSILPEGFRIGKRTRRPPENMTNAMISFGNSLLYSTVITELYNTQLNPTISYLHEPFERRYSLALDLSEIFKPTLIDRMIISLIKKKAIKAEDFEHGMNHCLLNNSGKRKFLAEYDRRLGKTVKHRELGRKVSYRRLIRLEAYKLIKHLIGQKSYEPFVMWW | not soluble
7 | MAMIKVDQHYFELIENYRECFNEEQFIARYSDILDKYDYIVGDYGYDQLRLKGFYKDSNKKAEMSKRFSNIQDYIFEYCNFGCPYFVLRHLSKQEVKKLIEEVHPSDVIDDDNKLQDVKIKPTIQDTEHLEHHHHHH | soluble
8 | RAIFKISVAKEKEKMDSLEHNDDNQAIALSLVVKNPAVFSKTLAEVRQLLKGHDYVISRTMDSRTNSISLAHSDTVLNENDRVFVITNPQNTAVISSFIGTEVQMDRKQWIPTESHLVSRRFIVTKSELNGKTLGSLQLRKMHGMNVTRVNRAGVEMVALASLPLQVGDRLTVVGSELVMPKVEELIGNSVKRLNEPN | soluble
9 | MLRHLGQLSVAHRGSGLHDAYVVNPAQQLDPELAPPPVVYVLETSYVALLLKNPEDVGYQLARRHDYCFALAPHLCILYSRHRVCERVKHHHSHPPPATCSS | soluble
10 | MQYFDVARILTTHGLHGEVKVNVITDFPEDRFAEGMQLELKDDIDRVLTIKKSRPFKQFWLLQFDEITDIDEAEKLRGKILVISEKDRGELPDGVYYYKDIFDCGVIDNETGKRLGKITDIQSPGANDIWLVHEDNGKEYWIPNIADVVKKIDIADKKVYVELMEGLRDEDLEHHHHHH | soluble
11 | MGSSHHHHHHSSGLVPRGSDLQEDEDGVYFSSYGHYGIHEEMLKDKIRTESYRDFIYQNPHIFKDKVVLDVGCGTGILSMFAAKAGAKKVLGVDQSEILYQAMDIIRLNKLEDTITLIKGKIEEVHLPVEKVDVIISEWMGYFLLFESMLDSVLYAKNKYLAKGGSVYPDICTISLVAVSDVNKHADRIAFWDDVYGFKMSCMKKAVIPEAVVEVLDPKTLISEPCGIKHIDCHTTSISDLEFSSDFTLKITRTSMCTAIAGYFDIYFEKNCHNRVVFSTGPQSTKTHWKQTVFLLEKPFSVKAGEALKGKVTVHKNKKDPRSLTVTLTLNNSTQTYGLQ | soluble
12 | MSLKTLENHNRIKVTVNGREIEVYDNLTILQALLQEDIHIPHLCYDIRLERSNGNCGLCVVTLISPDGERDVKACQTPIKEGMVICTNTPKLENYRKIRLEQLLSDHNADCVAPCVMTCPANIDIQSYLRHVGNGDFEAAIRVIKERNPFPIVCGRVCPHTCESQCRRNLVDAPVAINYVKRFAADWDMARPEPWTPEKKPPTGKKIAIVGAGPSGLSAAYYSAIKGHDVTVFERQPHPGGMMRYGIPEYRLPKAILDKEIEMIKKLGVKIMTEKALGIHIRLEDLSKDFDAVYLAIGSWQATPMHIEGEKLDGVWAGINYLEQVAKNVDIPLGDNVVVIGGGNTAIDCARTALRKGAKSVKLVYRCTREEMPAAPYEVEEAIHEGVEMIFLMAPTKIIVKDGKKKLVCIRMQLGEPDRSGRRRPVPIEGSEVEIDADTIIGAIGQSTNTQFLYNDLPVKLNKWGDIEVNGKTLQTSEYNIFAGGDCVTGPATVIEGHHHHHH | soluble
13 | MACTGYEELRKWFLDKMVNACRAIRDQKEDQSNSAAKKAMLYIQENYNKDISLDDVSGIVNISPYYFSKIFKEETGENFIEYVTKVRIEKAKEFLAQPDISIKEAGIRSGYTDPNYFSRIFKKQTDMTPSEYKTRYGK | not soluble
14 | MRPSAIVLAGGKEAWAERFGVGSKALVPYRGRPMVEWVLEALYAAGLSPVYVGENPGLVPAPALTLPDRGGLLENLEQALEHVEGRVLVATGDIPHLTEEAVRFVLDKAPEAALVYPIVPKEAVEARFPRTKRTYARLREGTFTGGNLLLLDKSLFRKALPLARRVVALRKRPLALARLVGWDVLLKLLLGRLSLAEVEARAQRILGVEARALVTPYPEVGVDVDREEDLVS | soluble
15 | MAHHHHHHMGVGLSTVRHAGTAILVPTVSAASTAVLPLSSEERVAALPGTTTPPAAAAAPAPPTAEHTSNPRQRLTDTPAAHAAVSLPHAAPKPHRRFLPYPEEASALATPPPAAVLTAAPVVVEAAVKRHRKGSRVTKPLHPAQASLFTWAEGGQRNATGDAIIAGDHLRRRCCPDAGVVANRSMDCDEDATLVVRSPDEGRRSGTSLQSEGGLYGEKGQRQFAASGQWSPSPASPEAEEVAATVCASVNATAVENAPSGPAAPLLSSAFTAYRPVARSASPGPALGQYEGLPLTSVQQVLESKHKVYRICLTGGPCAGKSTMLSAIQAKIPQRTGFRVMCVPEAATLLVTGGMQWDGDLTVPQQLGLLRTQLALEDQFYALAVASHVPTVIVSDRGTMDGRAFCTDAQFQEILRGVGSTIDVLRDRYDAVIHMVTAADGAEEFYNLDNPARYEDLDGARASDLRLQRMYVGHPMFRLLDNSTTFEDKIERGLQVVSQVVHKEQCAPALPTYYLVRRCPAELPVASATYTTYTTVLGNSQISDIRLLVKREMADGSTMHFFKSVRDAPSTVPSSRAPPRATSHASSGASFRSSVNAPTVSTASPTQQRTRAPNASAAASTRACASTATAPALRW | not soluble
16 | MILGEIMEVLAFKNQSLIDHVNDMVKYWERIKYRYLKTIKRALEALNIKLDIEKVDEFMKILIKLHDIGKASKIYQRAIINDQEKLMGFRHELVSAYYTYHILLKKFGDKNLAFIGALTVMLHHEPIIMGQIRNLKKKELTAEVVLDKLKKFDGMIEDFEDLIKKLIGYSIGDIIKNDSNKDDIIRFVIEMSVRARHTPNSEKLRFIVGTLLLPLVMCDYKGAESREGKAPKFAEVLEVESYVI | soluble
17 | MSLNWMELSIVVNHEVEYDVTEILESYGSNGVVIEDSNILEEQPVDKFGEIYDLNPEDYPEKGVRLKAYFNEFTYNENLKSNINYEILSLQQIDKTIYDYQEKLIAEVDWENEWKNYFHPFRASKQFTIVPSWESYVKENDNELCIELDPGMAFGTGDHPTTSMCLKAIETFVKPTDSVIDVGTGSGILSIASHLLGVQRIKALDIDEMAVNVAKENFKKNHCDDAIEAVPGNLLKNENEKFNIVIANILAHIIEEMIEDTYNTLIEDGYFITSGIIEEKYQDIESQMKRIGFKIISVEHDNGWVCIVGQKVSEGHHHHHH | soluble
18 | LKRDFIILGNGPRLQNSTYQCKHCDSKLQSTAELTSHLNIHNEEFQKRAKRQERRKQLLSKQKYADGAFADFKQE | soluble
19 | EVQLVESGGGLVQPGGSLRLSCAASGFNIKEYYMHWVRQAPGKGLEWVGLIDPEQGNTIYDPKFQDRATISADNSKNTAYLQMNSLRAEDTAVYYCARDTAAYFDYWGQGTLVTVSSASTKGPSVFPLAPSSKSTSGGTAALGCLVKDYFPEPVTVSWNSGALTSGVHTFPAVLQSSGLYSLSSVVTVPSSSLGTQTYICNVNHKPSNTKVDKKVEPKSCDKTHT | soluble
20 | MRASEVLQKCLPNSLSGMHALRERALLHAVEALLHGRRLTLMDIARSWPSALRVRAPLKAVDRLLSNRNLQVERSVIDHEMAHWLLRGAQPVIVIDWSDLKPDKSWCLLRAAVPVGGRTLTLLDMVVPGKQQGLEHHHHHH | soluble
21 | PNRSISPSALQDLLRTLKSPSSPQQQQQVLNILKSNPQLMAAFIKQRTAKYVANQPGMQ | soluble
22 | SADISLDELIRKRGAAAKGRLNARPGVGGVRSRVGIQQGLLSQSTRTATFQQRFDARQKIGLSDARLKLGVKDAREKLLQKDARFRIKGKVQDAREMLNSRKQQTTVPQKPRQVADAREKISLKRSSPAAFINPPIGTVTPALKLTKTIQNLYDLDEDDDGIASVPTKQMKFAASGGFLHHMAGLSSSKLSMSKALPLTKVVQNDAYTAPALPSSIRTKALPVLTSPGT | soluble
23 | FEKVYHLKLSIKGITPQIWRRIQVPENYTFLDLHKAIQAVMDWEDYHLHEFEMVNPKTGMLDKIGAEGDDFDAFGGPLVSEKKAKLSDYFTLENKEALYTYDFGDNWQVKVRLEKILPRKEGVEYPICTAGKRAAVPEDSGGVWGYEEMLEVLKDSEHEEYEDTVLWLGDDFDPEYFDPKDVS | not soluble
